The source of these data is paper PMC8291384 (Nature structural & molecular biology, 2020).

This test concerns the target T1, mouse RAG1 (aa 265-1040) E962Q, His6-MBP fusion (mouse, UniProt P15919 265-1040, E962Q).
T1 sequence (looked up): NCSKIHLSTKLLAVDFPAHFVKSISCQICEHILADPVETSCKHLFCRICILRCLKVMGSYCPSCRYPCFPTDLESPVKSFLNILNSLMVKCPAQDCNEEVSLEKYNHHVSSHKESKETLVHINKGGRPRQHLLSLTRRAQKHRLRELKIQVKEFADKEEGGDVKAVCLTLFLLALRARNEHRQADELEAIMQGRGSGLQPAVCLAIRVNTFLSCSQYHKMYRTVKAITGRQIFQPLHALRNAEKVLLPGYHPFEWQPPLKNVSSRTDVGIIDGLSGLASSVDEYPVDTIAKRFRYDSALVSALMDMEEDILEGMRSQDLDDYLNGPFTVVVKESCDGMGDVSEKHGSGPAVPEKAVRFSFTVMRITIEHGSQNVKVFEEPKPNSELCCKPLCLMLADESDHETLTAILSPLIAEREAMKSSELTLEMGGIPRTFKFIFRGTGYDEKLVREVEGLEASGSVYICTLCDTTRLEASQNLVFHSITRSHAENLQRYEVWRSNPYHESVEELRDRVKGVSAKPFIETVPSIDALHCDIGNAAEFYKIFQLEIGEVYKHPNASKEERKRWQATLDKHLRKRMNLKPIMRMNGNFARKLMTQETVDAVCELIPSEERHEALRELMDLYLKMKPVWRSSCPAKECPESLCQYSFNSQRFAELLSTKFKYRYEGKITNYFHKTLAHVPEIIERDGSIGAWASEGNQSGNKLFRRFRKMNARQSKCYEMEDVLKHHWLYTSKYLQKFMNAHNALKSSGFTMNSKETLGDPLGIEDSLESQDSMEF
The test can be described thus: cryo-EM structure.

B1: mouse RAG2 (aa 1-520) T490A, His6-MBP fusion (domain or fragment, UniProt P21784 1-520, looked up)
chain: MSLQMVTVGHNIALIQPGFSLMNFDGQVFFFGQKGWPKRSCPTGVFHFDIKQNHLKLKPAIFSKDSCYLPPLRYPATCSYKGSIDSDKHQYIIHGGKTPNNELSDKIYIMSVACKNNKKVTFRCTEKDLVGDVPEPRYGHSIDVVYSRGKSMGVLFGGRSYMPSTQRTTEKWNSVADCLPHVFLIDFEFGCATSYILPELQDGLSFHVSIARNDTVYILGGHSLASNIRPANLYRIRVDLPLGTPAVNCTVLPGGISVSSAILTQTNNDEFVIVGGYQLENQKRMVCSLVSLGDNTIEISEMETPDWTSDIKHSKIWFGSNMGNGTIFLGIPGDNKQAMSEAFYFYTLRCSEEDLSEDQKIVSNSQTSTEDPGDSTPFEDSEEFCFSAEATSFDGDDEFDTYNEDDEDDESVTGYWITCCPTCDVDINTWVPFYSTELNKPAMIYCSHGDGHWVHAQCMDLEERTLIHLSEGSNKYYCNEHVQIARALQAPKRNPPLQKPPMKSLHKKGSGKVLTPAKKS
Take B1: the binding result is recorded as “binds”.
